Reference: the supplement of paper PMC10567573

B1: ZNF207 (parent)
chain: CHICHKKLYTGPGLAIHCMQVHKE

Variants of: B1
Assay: protein stability index of a GFP-peptide fusion (GPS, HEK-293T) (PSI 1-6); higher = more stable
Conditions: c terminus: a fixed tail appended
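Also: lentivirally expressed fusions sorted by FACS into six bins by GFP to DsRed ratio, PSI derived from sequencing read proportions per bin multiplied by bin number.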

Variant	protein stability index
CHICHKKLYTGPGLIIHCMQVHKE [A15I]	2.79
CHICHKKLYTGPGLLIHCMQVHKE [A15L]	2.66
CHICHKKLYTGPGLCIHCMQVHKE [A15C]	4.64
CHICHKKLYTGPGLFIHCMQVHKE [A15F]	2.91
CHICHKKLYTGPGLSIHCMQVHKE [A15S]	3.42
CHICHKKLYTGPGLEIHCMQVHKE [A15E]	3.55
CHICHKKLYTGPGLGIHCMQVHKE [A15G]	4.44
CHICHKKLYTGPGLYIHCMQVHKE [A15Y]	3.21
CHICHKKLYTGPGLQIHCMQVHKE [A15Q]	3.7
CHICHKKLYTGPGLKIHCMQVHKE [A15K]	3.38
CHICHKKLYTGPGLRIHCMQVHKE [A15R]	3.19
CHICHKKLYTGPGLNIHCMQVHKE [A15N]	3.7
CHICHKKLYTGPGLVIHCMQVHKE [A15V]	2.35
CHICHKKLYTGPGLTIHCMQVHKE [A15T]	3.69
CHICHKKLYTGPGLWIHCMQVHKE [A15W]	2.27
CHICHKKLYTGPGLHIHCMQVHKE [A15H]	2.99
CHICHKKLYTGPGLMIHCMQVHKE [A15M]	3.35
CHICHKKLYTGPGLPIHCMQVHKE [A15P]	3.24
CHICHKKLYTGPGLDIHCMQVHKE [A15D]	4.37
CHICHKKLYTGPGLAIHTMQVHKE [C18T]	3.02
CHICHKKLYTGPGLAIHDMQVHKE [C18D]	2.75
CHICHKKLYTGPGLAIHMMQVHKE [C18M]	2.47
CHICHKKLYTGPGLAIHLMQVHKE [C18L]	3.69
CHICHKKLYTGPGLAIHPMQVHKE [C18P]	2.47

Variant	protein stability index
CHICHKKLYTGPGLAIHQMQVHKE [C18Q]	2.99
CHICHKKLYTGPGLAIHNMQVHKE [C18N]	2.59
CHICHKKLYTGPGLAIHHMQVHKE [C18H]	2.56
CHICHKKLYTGPGLAIHIMQVHKE [C18I]	2.06
CHICHKKLYTGPGLAIHYMQVHKE [C18Y]	2.02
CHICHKKLYTGPGLAIHVMQVHKE [C18V]	2.8
CHICHKKLYTGPGLAIHFMQVHKE [C18F]	2.21
CHICHKKLYTGPGLAIHEMQVHKE [C18E]	3.57
CHICHKKLYTGPGLAIHKMQVHKE [C18K]	3.09
CHICHKKLYTGPGLAIHWMQVHKE [C18W]	1.93
CHICHKKLYTGPGLAIHGMQVHKE [C18G]	2.18
CHICHKKLYTGPGLAIHRMQVHKE [C18R]	2.4
CHICHKKLYTGPGLAIHAMQVHKE [C18A]	2.62
CHICHKKLYTGPGLAIHSMQVHKE [C18S]	3.01
CHICHKKLYTGPGLANHCMQVHKE [I16N]	3.71
CHICHKKLYTGPGLADHCMQVHKE [I16D]	4.71
CHICHKKLYTGPGLAKHCMQVHKE [I16K]	3.23
CHICHKKLYTGPGLAMHCMQVHKE [I16M]	3.45
CHICHKKLYTGPGLACHCMQVHKE [I16C]	4.33
CHICHKKLYTGPGLAHHCMQVHKE [I16H]	4.39
CHICHKKLYTGPGLASHCMQVHKE [I16S]	3.72
CHICHKKLYTGPGLARHCMQVHKE [I16R]	2.71
CHICHKKLYTGPGLAYHCMQVHKE [I16Y]	3.02
CHICHKKLYTGPGLAWHCMQVHKE [I16W]	3.16

Variant	protein stability index
CHICHKKLYTGPGLAQHCMQVHKE [I16Q]	3.9
CHICHKKLYTGPGLAVHCMQVHKE [I16V]	3.81
CHICHKKLYTGPGLATHCMQVHKE [I16T]	3.82
CHICHKKLYTGPGLAEHCMQVHKE [I16E]	4.77
CHICHKKLYTGPGLAFHCMQVHKE [I16F]	3.83
CHICHKKLYTGPGLAAHCMQVHKE [I16A]	3.54
CHICHKKLYTGPGLAPHCMQVHKE [I16P]	3.97
CHICHKKLYTGPGLAGHCMQVHKE [I16G]	4.1
CHICHKKLYTGPGLALHCMQVHKE [I16L]	3.01
CHICHKKLYTGPGLAIHCCQVHKE [M19C]	4.56
CHICHKKLYTGPGLAIHCGQVHKE [M19G]	3.41
CHICHKKLYTGPGLAIHCHQVHKE [M19H]	4.12
CHICHKKLYTGPGLAIHCAQVHKE [M19A]	3.57
CHICHKKLYTGPGLAIHCFQVHKE [M19F]	3.75
CHICHKKLYTGPGLAIHCEQVHKE [M19E]	4.47
CHICHKKLYTGPGLAIHCDQVHKE [M19D]	3.36
CHICHKKLYTGPGLAISCMQVHKE [H17S]	3.15
CHICHKKLYTGPGLAICCMQVHKE [H17C]	3.87
CHICHKKLYTGPGLAIGCMQVHKE [H17G]	2.82
CHICHKKLYTGPGLAINCMQVHKE [H17N]	2.25
CHICHKKLYTGPGLAIDCMQVHKE [H17D]	2.47
CHICHKKLYTGPGLAIYCMQVHKE [H17Y]	2.67
CHICHKKLYTGPGLAIWCMQVHKE [H17W]	3.87
CHICHKKLYTGPGLAIFCMQVHKE [H17F]	3.52

Variant	protein stability index
CHICHKKLYTGPGLAIACMQVHKE [H17A]	2.15
CHICHKKLYTGPGLAILCMQVHKE [H17L]	1.87
CHICHKKLYTGPGLAIRCMQVHKE [H17R]	2.22
CHICHKKLYTGPGLAIECMQVHKE [H17E]	3.36
CHICHKKLYTGPGLAIMCMQVHKE [H17M]	2.55
CHICHKKLYTGPGLAITCMQVHKE [H17T]	2.7
CHICHKKLYTGPGLAIICMQVHKE [H17I]	2.08
CHICHKKLYTGPGLAIKCMQVHKE [H17K]	2.19
CHICHKKLYTGPGLAIVCMQVHKE [H17V]	3.01
CHICHKKLYTGPGLAIPCMQVHKE [H17P]	2.78
CHICHKKLYTGPGLAIQCMQVHKE [H17Q]	2.97
CHICHKKLYTGPGMAIHCMQVHKE [L14M]	3.45
CHICHKKLYTGPGYAIHCMQVHKE [L14Y]	2.94
CHICHKKLYTGPGVAIHCMQVHKE [L14V]	3
CHICHKKLYTGPGRAIHCMQVHKE [L14R]	2.79
CHICHKKLYTGPGTAIHCMQVHKE [L14T]	3.6
CHICHKKLYTGPGNAIHCMQVHKE [L14N]	4.65
CHICHKKLYTGPGPAIHCMQVHKE [L14P]	3.9
CHICHKKLYTGPGWAIHCMQVHKE [L14W]	2.85
CHICHKKLYTGPGKAIHCMQVHKE [L14K]	3.1
CHICHKKLYTGPGQAIHCMQVHKE [L14Q]	3.78
CHICHKKLYTGPGSAIHCMQVHKE [L14S]	3.22
